Article PMC6811359

Legend:
[1] = target: PAL, light-oxygen-voltage (LOV) receptor from Nakamurella multipartita (Nakamurella multipartita); test: SEC-MALS
[2] = target: PAL, light-oxygen-voltage (LOV) receptor from Nakamurella multipartita (Nakamurella multipartita); test: SEC
[3] = target: isolated LOV domain of PAL (Nakamurella multipartita); test: SEC-MALS
[4] = target: isolated LOV domain of PAL (Nakamurella multipartita); test: SEC

Row | stoichiometry N [1] | stoichiometry N [2] | stoichiometry N [3] | stoichiometry N [4] | Substance
1 | 2 | 2 |  |  | PAL, light-oxygen-voltage (LOV) receptor from Nakamurella multipartita (natural protein)
2 |  |  | 2 | 2 | isolated LOV domain of PAL (domain or fragment)
